The target of experiment [1] is CD19 on CD19+ Raji B cells (UniProt P15391). Briefly: cell-based or functional assay.
Experiment [2] has the same target. Briefly: cell-based or functional assay. This is another data set of the same source.

Where two headings read alike, the source gives them in different places.

Chain of UniProt P15391 (P15391 20-556 limits assumed): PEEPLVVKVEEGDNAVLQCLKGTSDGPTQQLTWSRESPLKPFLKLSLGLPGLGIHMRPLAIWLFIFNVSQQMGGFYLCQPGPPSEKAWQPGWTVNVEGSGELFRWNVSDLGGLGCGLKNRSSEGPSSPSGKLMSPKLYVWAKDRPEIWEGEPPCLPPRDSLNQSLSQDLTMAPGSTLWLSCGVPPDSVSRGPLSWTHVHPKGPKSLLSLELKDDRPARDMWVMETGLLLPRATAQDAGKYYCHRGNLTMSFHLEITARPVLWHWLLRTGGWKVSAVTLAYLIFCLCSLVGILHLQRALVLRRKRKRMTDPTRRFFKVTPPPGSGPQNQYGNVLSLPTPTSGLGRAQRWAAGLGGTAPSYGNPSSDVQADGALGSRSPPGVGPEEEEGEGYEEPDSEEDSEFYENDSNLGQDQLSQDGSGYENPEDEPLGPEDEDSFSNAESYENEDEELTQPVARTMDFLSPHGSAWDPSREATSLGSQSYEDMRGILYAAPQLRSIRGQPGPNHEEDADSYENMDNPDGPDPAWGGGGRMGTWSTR

For “anti-CD19 CAR (anti-CD19 CAR cassette as described in WO 2012/079000) (receptor)”, the activated cells in the population (CD25 and CD69 activation markers, flow cytometry, 24h co-culture) in experiment [1] was 3.9 to 12.1%; in experiment [2], 0.9 to 84.8%.

For the origin of these results see patent US20210046117A1.
